From patent US20060058231A1 (Xencor, published 2006)

T1: BMPRII receptor-Fc fusion (UniProt Q13873 27-151, limits assumed)
T1 construct: BMP receptor-Fc fusion used at 5 ug/mL
T1 sequence (looked up): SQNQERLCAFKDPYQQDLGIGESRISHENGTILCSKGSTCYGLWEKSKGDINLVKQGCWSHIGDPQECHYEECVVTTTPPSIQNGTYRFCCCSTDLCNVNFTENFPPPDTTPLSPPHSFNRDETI

T2: BMPRIb receptor-Fc fusion (UniProt O00238 14-126)
T2 construct: BMP receptor-Fc fusion used at 5 ug/mL; also called ALK-6
T2 sequence (looked up): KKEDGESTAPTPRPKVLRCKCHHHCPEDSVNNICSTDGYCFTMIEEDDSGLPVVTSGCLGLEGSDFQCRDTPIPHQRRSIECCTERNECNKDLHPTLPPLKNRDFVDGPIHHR


How the values were obtained:
Test in all cases: ELISA-like plate assay, captured BMP-7 from conditioned media, receptor-Fc detection
[1] = target: T1, BMPRII receptor-Fc fusion
[2] = target: T3, ActRIIa receptor-Fc fusion (UniProt P27037 20-134, limits assumed)
T3 construct: BMP receptor-Fc fusion used at 5 ug/mL

[3] = target: T4, BMPRIa receptor-Fc fusion (UniProt P36894 24-152, limits assumed)
T4 construct: also called ALK-3

[4] = target: T2, BMPRIb receptor-Fc fusion

T3 sequence (P27037 20-134 limits assumed): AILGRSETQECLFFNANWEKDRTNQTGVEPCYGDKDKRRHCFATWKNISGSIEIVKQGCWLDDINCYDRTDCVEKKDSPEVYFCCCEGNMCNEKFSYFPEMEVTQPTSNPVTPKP
T4 sequence (P36894 24-152 limits assumed): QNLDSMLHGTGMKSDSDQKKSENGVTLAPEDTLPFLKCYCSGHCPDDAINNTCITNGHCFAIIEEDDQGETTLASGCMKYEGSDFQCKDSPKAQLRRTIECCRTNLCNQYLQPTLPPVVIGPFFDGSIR

Row | Binder | BMPRII binding (relative to wild type = 1.0) [1] | ActRIIa binding (relative to wild type = 1.0) [2] | BMPRIa binding (relative to wild type = 1.0) [3] | BMPRIb binding (relative to wild type = 1.0) [4]
1 | BMP-7 variant F93D (ligand, In conditioned media; numbering on mature BMP-7) STGGKQRSQNRSKTPKNQEALRMASVAENSSSDQRQACKKHELYVSFRDLGWQDWIIAPEGYAAYYCEGECAFPLNSYMNATNHAIVQTLVHDINPETVPKPCCAPTQLNAISVLYFDDSSNVILKKYRNMVVRACGCH | 0.62 relative to wild type | 0.8 relative to wild type | 0.96 relative to wild type | 0.91 relative to wild type
2 | BMP-7 variant I86Q (ligand, In conditioned media; numbering on mature BMP-7) STGGKQRSQNRSKTPKNQEALRMASVAENSSSDQRQACKKHELYVSFRDLGWQDWIIAPEGYAAYYCEGECAFPLNSYMNATNHAQVQTLVHFINPETVPKPCCAPTQLNAISVLYFDDSSNVILKKYRNMVVRACGCH | 1.07 relative to wild type | 0.96 relative to wild type | 0.66 relative to wild type | 0.82 relative to wild type
3 | BMP-7 variant F93T (ligand, In conditioned media; numbering on mature BMP-7) STGGKQRSQNRSKTPKNQEALRMASVAENSSSDQRQACKKHELYVSFRDLGWQDWIIAPEGYAAYYCEGECAFPLNSYMNATNHAIVQTLVHTINPETVPKPCCAPTQLNAISVLYFDDSSNVILKKYRNMVVRACGCH | 0.81 relative to wild type | 0.79 relative to wild type | 0.77 relative to wild type | 0.88 relative to wild type
4 | BMP-7 variant I86E (ligand, In conditioned media; numbering on mature BMP-7) STGGKQRSQNRSKTPKNQEALRMASVAENSSSDQRQACKKHELYVSFRDLGWQDWIIAPEGYAAYYCEGECAFPLNSYMNATNHAEVQTLVHFINPETVPKPCCAPTQLNAISVLYFDDSSNVILKKYRNMVVRACGCH | 1.13 relative to wild type | 1 relative to wild type | 0.66 relative to wild type | 0.69 relative to wild type
5 | BMP-7 variant I86K (ligand, In conditioned media; numbering on mature BMP-7) STGGKQRSQNRSKTPKNQEALRMASVAENSSSDQRQACKKHELYVSFRDLGWQDWIIAPEGYAAYYCEGECAFPLNSYMNATNHAKVQTLVHFINPETVPKPCCAPTQLNAISVLYFDDSSNVILKKYRNMVVRACGCH | 1.02 relative to wild type | 0.97 relative to wild type | 0.81 relative to wild type | 0.69 relative to wild type
6 | BMP-7 variant I86D (ligand, In conditioned media; numbering on mature BMP-7) STGGKQRSQNRSKTPKNQEALRMASVAENSSSDQRQACKKHELYVSFRDLGWQDWIIAPEGYAAYYCEGECAFPLNSYMNATNHADVQTLVHFINPETVPKPCCAPTQLNAISVLYFDDSSNVILKKYRNMVVRACGCH | 1.31 relative to wild type | 1.09 relative to wild type | 1.03 relative to wild type | 1.18 relative to wild type
7 | BMP-7 variant I57L (ligand, In conditioned media; numbering on mature BMP-7) STGGKQRSQNRSKTPKNQEALRMASVAENSSSDQRQACKKHELYVSFRDLGWQDWILAPEGYAAYYCEGECAFPLNSYMNATNHAIVQTLVHFINPETVPKPCCAPTQLNAISVLYFDDSSNVILKKYRNMVVRACGCH | 0.4 relative to wild type | 0.9 relative to wild type | 0.92 relative to wild type | 1.17 relative to wild type
8 | BMP-7 variant F93H (ligand, In conditioned media; numbering on mature BMP-7) STGGKQRSQNRSKTPKNQEALRMASVAENSSSDQRQACKKHELYVSFRDLGWQDWIIAPEGYAAYYCEGECAFPLNSYMNATNHAIVQTLVHHINPETVPKPCCAPTQLNAISVLYFDDSSNVILKKYRNMVVRACGCH | 1.2 relative to wild type | 0.98 relative to wild type | 1.03 relative to wild type | 1.04 relative to wild type
9 | BMP-7 variant F117K (ligand, In conditioned media; numbering on mature BMP-7) STGGKQRSQNRSKTPKNQEALRMASVAENSSSDQRQACKKHELYVSFRDLGWQDWIIAPEGYAAYYCEGECAFPLNSYMNATNHAIVQTLVHFINPETVPKPCCAPTQLNAISVLYKDDSSNVILKKYRNMVVRACGCH | 0.2 relative to wild type | 0.34 relative to wild type | 0.43 relative to wild type | 0.62 relative to wild type
10 | BMP-7 variant F117R (ligand, In conditioned media; numbering on mature BMP-7) STGGKQRSQNRSKTPKNQEALRMASVAENSSSDQRQACKKHELYVSFRDLGWQDWIIAPEGYAAYYCEGECAFPLNSYMNATNHAIVQTLVHFINPETVPKPCCAPTQLNAISVLYRDDSSNVILKKYRNMVVRACGCH | 0.72 relative to wild type | 0.35 relative to wild type | 0.47 relative to wild type | 0.71 relative to wild type
11 | BMP-7 variant F117Y (ligand, In conditioned media; numbering on mature BMP-7) STGGKQRSQNRSKTPKNQEALRMASVAENSSSDQRQACKKHELYVSFRDLGWQDWIIAPEGYAAYYCEGECAFPLNSYMNATNHAIVQTLVHFINPETVPKPCCAPTQLNAISVLYYDDSSNVILKKYRNMVVRACGCH | 0.96 relative to wild type | 1.03 relative to wild type | 1.07 relative to wild type | 0.73 relative to wild type
12 | BMP-7 variant F93G (ligand, In conditioned media; numbering on mature BMP-7) STGGKQRSQNRSKTPKNQEALRMASVAENSSSDQRQACKKHELYVSFRDLGWQDWIIAPEGYAAYYCEGECAFPLNSYMNATNHAIVQTLVHGINPETVPKPCCAPTQLNAISVLYFDDSSNVILKKYRNMVVRACGCH | 0.35 relative to wild type | 0.63 relative to wild type | 0.6 relative to wild type | 0.53 relative to wild type
13 | BMP-7 variant F93E (ligand, In conditioned media; numbering on mature BMP-7) STGGKQRSQNRSKTPKNQEALRMASVAENSSSDQRQACKKHELYVSFRDLGWQDWIIAPEGYAAYYCEGECAFPLNSYMNATNHAIVQTLVHEINPETVPKPCCAPTQLNAISVLYFDDSSNVILKKYRNMVVRACGCH | 0.62 relative to wild type | 0.79 relative to wild type | 0.83 relative to wild type | 0.99 relative to wild type

Results, then the binder that gave them:

Row | BMPRII binding (relative to wild type = 1.0) [1] | ActRIIa binding (relative to wild type = 1.0) [2] | BMPRIa binding (relative to wild type = 1.0) [3] | BMPRIb binding (relative to wild type = 1.0) [4] | Binder
14 | 0.94 relative to wild type | 0.94 relative to wild type | 1.01 relative to wild type | 1.52 relative to wild type | BMP-7 variant L21D (ligand, In conditioned media; numbering on mature BMP-7) STGGKQRSQNRSKTPKNQEADRMASVAENSSSDQRQACKKHELYVSFRDLGWQDWIIAPEGYAAYYCEGECAFPLNSYMNATNHAIVQTLVHFINPETVPKPCCAPTQLNAISVLYFDDSSNVILKKYRNMVVRACGCH
15 | 1.51 relative to wild type | 1.06 relative to wild type | 3.48 relative to wild type | 2.86 relative to wild type | BMP-7 variant K39A (ligand, In conditioned media; numbering on mature BMP-7) STGGKQRSQNRSKTPKNQEALRMASVAENSSSDQRQACAKHELYVSFRDLGWQDWIIAPEGYAAYYCEGECAFPLNSYMNATNHAIVQTLVHFINPETVPKPCCAPTQLNAISVLYFDDSSNVILKKYRNMVVRACGCH
16 | 0 relative to wild type | 0.26 relative to wild type | 0.23 relative to wild type | 0.22 relative to wild type | BMP-7 variant K126E (ligand, In conditioned media; numbering on mature BMP-7) STGGKQRSQNRSKTPKNQEALRMASVAENSSSDQRQACKKHELYVSFRDLGWQDWIIAPEGYAAYYCEGECAFPLNSYMNATNHAIVQTLVHFINPETVPKPCCAPTQLNAISVLYFDDSSNVILEKYRNMVVRACGCH
17 | 0.28 relative to wild type | 0.81 relative to wild type | 0.46 relative to wild type | 0.57 relative to wild type | BMP-7 variant K126Q (ligand, In conditioned media; numbering on mature BMP-7) STGGKQRSQNRSKTPKNQEALRMASVAENSSSDQRQACKKHELYVSFRDLGWQDWIIAPEGYAAYYCEGECAFPLNSYMNATNHAIVQTLVHFINPETVPKPCCAPTQLNAISVLYFDDSSNVILQKYRNMVVRACGCH
18 | 0.99 relative to wild type | 1.08 relative to wild type | 1.98 relative to wild type | 1.63 relative to wild type | BMP-7 variant K39N (ligand, In conditioned media; numbering on mature BMP-7) STGGKQRSQNRSKTPKNQEALRMASVAENSSSDQRQACNKHELYVSFRDLGWQDWIIAPEGYAAYYCEGECAFPLNSYMNATNHAIVQTLVHFINPETVPKPCCAPTQLNAISVLYFDDSSNVILKKYRNMVVRACGCH
19 | 1.37 relative to wild type | 1.04 relative to wild type | 2.77 relative to wild type | 2.23 relative to wild type | BMP-7 variant K39S (ligand, In conditioned media; numbering on mature BMP-7) STGGKQRSQNRSKTPKNQEALRMASVAENSSSDQRQACSKHELYVSFRDLGWQDWIIAPEGYAAYYCEGECAFPLNSYMNATNHAIVQTLVHFINPETVPKPCCAPTQLNAISVLYFDDSSNVILKKYRNMVVRACGCH
20 | 1.32 relative to wild type | 1.1 relative to wild type | 0.74 relative to wild type | 0.74 relative to wild type | BMP-7 variant I94Q (ligand, In conditioned media; numbering on mature BMP-7) STGGKQRSQNRSKTPKNQEALRMASVAENSSSDQRQACKKHELYVSFRDLGWQDWIIAPEGYAAYYCEGECAFPLNSYMNATNHAIVQTLVHFQNPETVPKPCCAPTQLNAISVLYFDDSSNVILKKYRNMVVRACGCH
